Usually stoichiometry N stands for the number of molecules, sites or subunits per partner or assembly.

The values below come from PMC6557629.

The target of the assay is Recombinant murine serum amyloid A isoform 1.1 (murine). Description: cross-linking; SAA-POPC complexes hydrolyzed by sPLA2-III (0.5 mg/ml protein) with glutaraldehyde 0.01-0.08%, 30 min at 24°C, 50 mM sodium phosphate, 150 mM NaCl, pH 7.5; quenched with 100 mM Tris; SDS PAGE.

With “Recombinant murine serum amyloid A isoform 1.1 (natural protein)”, the stoichiometry N was determined as 6.
